In patent EP4269437A1:

Experiments:
[1] = target: PD-1 (UniProt Q15116); test: ELISA, TG1 supernatant on coated PD-1, anti-c-myc HRP
[2] = target: PD-1 (UniProt Q15116); test: blocking ELISA, clone supernatant, competitor PD-L1.hFc detected with anti-human Fc HRP

PD-1, sequence (Q15116 25-170 limits assumed): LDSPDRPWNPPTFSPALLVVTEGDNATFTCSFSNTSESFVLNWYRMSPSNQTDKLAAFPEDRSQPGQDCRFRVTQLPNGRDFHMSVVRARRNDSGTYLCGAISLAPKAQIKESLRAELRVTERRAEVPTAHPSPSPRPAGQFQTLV

| OD450, clone binding with PD-1 [1] [OD450] | OD450, PD-L1 binding with PD-1 [2] [OD450] | Binder |
| --- | --- | --- |
| 2.25 | 2.2 | NB205 (VHH) VHH: EVQLVESGGGLVQVGDSLRLSCAASGRTFSSVPMGWFRQAPGNQREFVAAISKSGGSAGYADSVKDRSTISRDNAKNTIYLQMNSLKPEDTAVYYCAASSFDFCSTHGCYDYWGQGTQVTISS |
| 3.22 | 2.04 | NB209 (VHH) VHH: EVQVVESGGGLVQTGGSLRLSCAASGDTALFSAVGWYRQAPGKERELVAALTNTGITYYADSVEGRFTIFRDNAKNTVYLQMNSLKPEDTAVYYCNAGAPPPGGLGYDESDYWGQGTQVTVSS |
| 3.39 | 2.49 | NB196 (VHH) VHH: QVQLVETGGGLVQAGGSLRLSCTASGDTNLFSAMGWHRQAPGKERELVAAITNSGMTYYADVVKGRFTLSRDNAKNTVYLQMNSLKPEDTAVYYCNAGAPPPGGFGYDESDYWGQGTQVTVSS |
| 3.13 | 2.24 | NB195 (VHH) VHH: EVQVVESGGGLVQAGGSLRLSCAASGDTILISAIGWYRQAPGKVRELVAAITNSGVTYYTDSVKGRFTISRDNAKNTVYLQMDSLKPEDTAVYYCNAGGPPPGGLGYDESDYWGPGTHVTVSS |
| 2.97 | 2.34 | NB189 (VHH) VHH: QVKLEESGGGLVQAGGSLRLSCTASGGTFNSYAMGWFRQAPGKERESVAAINLSRGNTYYADSVKGRFTISRDNAKNTVYLQMNSLKPEDTAVYHCGVDRRQYGLGIPPLADHWGQGTQVTVSS |
| 3.04 | 0.723 | NB202 (VHH) VHH: EVQVVESGGGLVQAGGSLRLSCTASGDTRLASAMGWYRQAPGKERELVAAITNSGLTYYADSVEGRFTISRDSAKNTVYLQMNSLKPEDTAVYYCNAGAPPPGGLGYDESDYWGQGTQVTVSS |
| 2.97 | 0.794 | NB173 (VHH) VHH: QVQLQESGGGLVQAGGSLRLSCAASGRSFNSYAMGWFRQAPGKEREFVAAISQNGGTQGYAEAVKDRFTISRDNTNKVVALQMNSLKPEDTAAYYCAADGDASDISYAPPRDYEYDYWGQGTQVTVSS |
| 2.31 | 2.48 | NB200 (VHH) VHH: QVQLVESGGGLVQAGGSLTLSCAASGRTFNSYAMGWFRQAPGKEREFVAAISQNGGSQGYAEAVKDRFTISRDNTNKVVALQMNSLKPEDTAAYYCAADGDASDRSYAPPRDYEYEYWGQGTQVTVSS |
| 2.66 | 2.27 | NB197 (VHH) VHH: QVQLQESGGGLVQPGGSLRLSCAASGFTLDDHSIGWFRQAPGKEREPVSCISTSDGRTYYEDSVKGRFTISRDKAKNTVYLQMDSLKPEDTAVYYCTTDVACYSDYDPSFRFWGQGTQVTVSS |
| 2.65 | 2.24 | NB192 (VHH) VHH: EVQLVESGGGLVQAGGSLRLSCAASGRTFNGYGMGWFRQAPGKEREFVAAISWRDSSKYYADSVRDRFTASRDNAKNTVYLQMNSLKPEDTAVYYCRPYSDYVTYDPYDYDAWGQGTQVTVSS |

Second part, the binder before the results:

| Binder | OD450, clone binding with PD-1 [1] [OD450] | OD450, PD-L1 binding with PD-1 [2] [OD450] |
| --- | --- | --- |
| NB147 (VHH) VHH: EVQVVESGGGVVQAGDSLRLSCVASGRTFSSVAMGWFRQAPGKEREFVAAISRSGGSAGYSDSVKDRSTISRDNAKNTVYLQMNSLKPEDTAVYFCAASELDFCSTLGCYDYWGQGIQVTFSS | 2.63 | 0.994 |
| NB171 (VHH) VHH: QVQLVESGGGLVQAGGSLRLSCAASGRTFSSYAMGWFRQALGKEREWIAGVSMSGRTTYYAAPVKDRFTISRDNAKNTVTLQMNSLKPEDTAVYYCAAGRAQAEIPIMRAQEYDSWGQGTQVTVSS | 2.78 | 0.715 |
| NB153 (VHH) VHH: DVQLQESGGGLVQAGGSLRVSCAASGRTFSSYGMGWFRQAPGKERELVAAITNTGLTYYADSVEGRFTISRDAAKNTVYLQMNSLEPEDTAVYYCNAGAPPPGGLGYDESDYWGQGTLVTVSS | 3.29 | 2.05 |
| NB166 (VHH) VHH: EVQVQESGGGLVQAGGSLTLSCAASGDTILISSIGWYRQAPGKERELVAAITNSGLTYYPDSVKGRFTISRDNAKNTVYLQMNNLKPEDTAVYYCNAGGPPPGGLGYDESDYWGQGTQVTVSS | 3.39 | 2.29 |
| NB164 (VHH) VHH: QVQLVESGGGLLQAGDSLRLSCIASGRTFSSYAMGWFRQAPGKEREFVAGINGNGRSQYYAEVVKDRFFISRDNAKNTVYLQMNSLKPEDTAVYYCAAEGHLGVPTVRSDEYDYWGQGTQVTVSS | 2.84 | 2 |
| NB172 (VHH) VHH: EVQLVESGGGLVQAGGSLRLSCTASGDTRLASAMGWYRQAPGKERELVAVITNSGLTHYADSVEGRFTISRDSAKNTVYLQMNSLKPEDTAVYYCNAGAPPPGGLGYDESDYWDQGTQVTVSS | 3.05 | 2.17 |
| NB154 (VHH) VHH: QVQLVESGGGLVQAGDSLRLSCAASGGTFSGYGMGWFRQAPGKEREFVAGISRHGGSTGYSSSVKDRFTISRDNAKNTVDLQMNSLKPEDTAVYHCAAALRPDYGDSYVYTSTSNYEYWGQGTQVTVSS | 2.61 | 2.28 |
| NB159 (VHH) VHH: QVQLVESGGGSVQAGDSLRISCEASGRTFMRYSMGWFRQASGKEREFVAAISWGGSSTYYADSVKGRFIISRDNTKNTVFLQMNSLKPEDTAVYYCAADTNPSGSWDRPTNEAEYDYWGQGTQVTVSS | 1.84 | 2.1 |
| NB148 (VHH) VHH: QVQLVESGGGLVQAGGSLRLSCAASGGTFSGSELGWFRQAPGKEREFVAGISRNGGTTGYSDSVKDRFTIARDNAKNTVYLQMNSLKPEDTAVYYCAAGLRAYYGDSYVDTMTENYNYWGQGTQVTVSS | 2.84 | 2.56 |
| NB169 (VHH) VHH: QVQLVESGGGLVPPGGSLRLSCAASGFTFSSYPMSWYRQAPGRKRDFVAMLTGAGGSTDYADSVKGRFTISRDNAKNTVYLQMNSLKPEDTAVYYCNAPAAMRDYGIDYWGKGTLVNVSS | 2.9 | 2.13 |
| NB170 (VHH) VHH: EVQLVESGGGLVQAGDSLRLSCAASGGTFGRLETGWFRQAPGKEREFVAAISWDGETSYADSVKGRFTISRDNAKNTMALQMNRLTPEDTAVYFCAARVILRAYKYWGQGTQVTVSS | 2.7 | 2.02 |
